For the assay, the target named is Class C scavenger receptor of Marsupenaeus japonicus (MjSRC), native protein of hemocytes (Marsupenaeus japonicus (endogenous in hemocytes)). The assay is described as follows: cross-linking; hemocytes collected 30 min after injection of WSSV or PBS, 5 mM BS3 at 4°C for 1 h in PBS pH 8.0, quenched with Tris-HCl; SDS-PAGE and western blotting with anti-MjSRC sera; oligomer size by molecular mass.

Results on one substance are retold here after publication PMC5222524.

With “Class C scavenger receptor of Marsupenaeus japonicus (MjSRC), native protein of hemocytes (from UniProt A0A1L2DC21 1-692)”, the stoichiometry N was determined as 3.
